We go through eight molecules from patent US20220380459A1 (DRAGONFLY THERAPEUTICS, published 2022).

By Kd is commonly meant the constant that tells how readily two partners part at equilibrium. A higher Kd goes with a looser complex. As usually defined, the koff is the rate constant with which the complex falls apart. Higher therefore signals a short-lived complex. In general, kon refers to a measure of how fast the partners come together.

Changes are numbered by the printed parent chain.

B1: ADI-11828 Fab (Fab, V domains shown)
VH: EVQLVESGGGLVQPGGSLRLSCAASGFTFSSYWMSWVRQAPGKGLEWVANINQDGSEVYYVDSVKGRFTISRDNAKNSLYLQMNSLRAEDTAVYYCARDVGPGIAYQGHFDYWGQGTLVTVSS
VL: DIQMTQSPSSLSASVGDRVTITCRASQSIYYYLNWYQQKPGKAPKLLIYAASSRQSGVPSRFSGSGSGTDFTLTISSLQPEDFATYYCQQVYDTPLTFGGGTKVEIK
notes: Fab fragment; also called Ab27
B2: ADI-10161 Fab (Fab, V domains shown)
VH: EVQLVESGGGLVQPGGSLRLSCAASGFTFSSYWMSWVRQAPGKGLEWVANINQDGSEKYYVDSVKGRFTISRDNAKNSLYLQMNSLRAEDTAVYYCAREGGDSWYHAFDIWGQGTMVTVSS
VL: DIQMTQSPSSVSASVGDRVTITCRASQGISSWLAWYQQKPGKAPKLLIYAASNLQSGVPSRFSGSGSGTDFTLTISSLQPEDFATYYCQQKLSLPLTFGGGTKVEIK
notes: Fab fragment; also called Ab16
B3: ADI-11839 Fab (Fab, V domains shown)
VH: QVQLVQSGAEVKKPGASVKVSCKASGYTFSNYYMHWVRQAPGQGLEWMGWINPFSGGTRYAQKFQGRVTMTRDTSTSTVYMELSSLRSEDTAVYYCARDVGSSAYYYMDVWGKGTTVTVSS
VL: B2 VL with R24E, Q27K, N53D, K91A, L92F, S93L, L94F, L96P
notes: Fab fragment; also called Ab28
B4: ADI-10164 Fab (Fab, V domains shown)
VH: QVQLQESGPGLVKPSETLSLTCAVSGYSISSGYYWGWIRQPPGKGLEWIGSIYHSGSTNYNPSLKSRVTISVDTSKNQFSLKLSSVTAADTAVYYCARLPPWFGFSYFDLWGRGTLVTVSS
VL: EIVLTQSPATLSLSPGERATLSCRASQSVSSYLAWYQQKPGQAPRLLIYDASNRATGIPARFSGSGSGTDFTLTISSLEPEDFAVYYCQQVDNYPPTFGGGTKVEIK
notes: Fab fragment; also called Ab18
B5: ADI-10160 Fab (Fab, V domains shown)
VH: EVQLVESGGGLVQPGGSLRLSCAASGFTFSSYWMSWVRQAPGKGLEWVANINQDGSEKYYVDSVKGRFTISRDNAKNSLYLQMNSLRAEDTAVYYCAREANYYGNVGDDYWGQGTLVTVSS
VL: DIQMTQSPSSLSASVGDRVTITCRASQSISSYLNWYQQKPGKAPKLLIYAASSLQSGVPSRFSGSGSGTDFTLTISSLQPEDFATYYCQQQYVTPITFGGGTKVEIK
notes: Fab fragment; also called Ab15
B6: ADI-11825 Fab (Fab, V domains shown)
VH: B5 VH with S30G, S31G, K58E
VL: B1 VL with Y31N, S53N, R54L, Q55H, V91A, Y92F, D93H, T94V, L96I
notes: Fab fragment; also called Ab25
B7: A40.I07 (bispecific antibody)
NKG2D-binding VH: QVQLQQWGAGLLKPSETLSLTCAVYGGSFSGYYWSWIRQPPGKGLEWIGEIDHSGSTNYNPSLKSRVTISVDTSKNQFSLKLSSVTAADTAVYYCARARGPWSFDPWGQGTLVTVSS
NKG2D-binding VL: DIQMTQSPSTLSASVGDRVTITCRASQSIGSWLAWYQQKPGKAPKLLIYKASSLESGVPSRFSGSGSGTEFTLTISSLQPDDFATYYCQQYHSFYTFGGGTKVEIK
CD33-binding VH: EVQLVESGGGLVQPGGSLRLSCAASGFTFGSYWMSWVRQAPGKGLEWVATIKQDGSEKSYVDSVKGRFTISRDNAKNSLYLQMNSLRAEDTAVYYCARPLNAGELDVWGQGTMVTVSS
CD33-binding VL: DIQMTQSPSTLSASVGDRVTITCRASQSISSWLAWYQQKPGKAPKLLIYEASSLESGVPSRFSGSGSGTEFTLTISSLQPDDFATYYCQQSQSYPPITFGGGTKVEIK
B8: F47.I07 (bispecific antibody)
NKG2D-binding VH: B7 NKG2D-binding VH
NKG2D-binding VL: B7 NKG2D-binding VL with G30S, H92D, S93T, Y95I
CD33-binding VH: B7 CD33-binding VH
CD33-binding VL: B7 CD33-binding VL

One experiment has as its target T1, C domain of human CD33 (human, UniProt P20138 140-259, limits assumed).
T1 construct: recombinant C domain
Kind of experiment: SPR, Fab captured, 37C. A general note: SPR reads the build-up and loss of mass on a sensor chip optically.
Method: (§1) Kinetics and affinity of a series of Fab fragments of anti-CD33 antibodies with different CD33 variants (human CD33 ECD, cyno CD33 ECD, V-domain of human CD33, C-domain or human CD33 and selected CD33 SNPs) were assessed by surface plasmon resonance using Biacore 8K instrument (GE Healthcare). Anti-Fab antibody was immobilized on a CMS chip using standard amine coupling chemistry. CD33 FABs were captured on the anti-Fab chip at a density of ˜100 RU. Solutions containing different concentrations of soluble monomeric CD33 or its domains were injected over the captured FABs and control surfaces at 30 μl/min at 37° C. Surfaces were regenerated between cycles by quick injection of 10 mM glycine, pH 1.8. To obtain kinetic rate constants double-referenced data were fit to a 1:1 interaction model using Biacore 8K Evaluation software (GE Healthcare). The equilibrium binding constant KD was determined by the ratio of binding rate constants kd/kₐ.
The binding interface between the Fab fragment of each CD33 antibody to CD33 was mapped.
B1: the binding result is recorded as “no binding”.

Turning to B2, the binding result is listed as “no binding”.

Consider B3, for which the binding result was “no binding”.

Take B4: the binding result was “no binding”.

Turning to B5, the binding result is “no binding”.

As for B6, the binding result is “no binding”.

The target in a further experiment is T2, human CD33 extracellular domain (human, UniProt P20138 18-259).
T2 construct: soluble monomeric ECD; also called human CD33 ECD; hCD33
Nature of the experiment: SPR, Fab captured, 37C.
The molecule B1 yielded a Kd of 2.67 nM, a koff of 0.00351 s⁻¹ and a kon of 1.32e+06 M⁻¹ s⁻¹.

Molecule B2 returned a Kd of 20.6 nM, a koff of 0.0118 s⁻¹ and a kon of 574000 M⁻¹ s⁻¹.

In turn, B3 returned a Kd of 18.6 nM, a koff of 0.0162 s⁻¹ and an on-rate constant (kon) of 874000 M⁻¹ s⁻¹.

B4 had a Kd of 31.5 nM, a koff of 0.0101 s⁻¹ and a kon of 319000 M⁻¹ s⁻¹.

In the case of B5, the Kd was found to be 42.2 nM, the koff turned out to be 0.0269 s⁻¹ and the kon amounted to 637000 M⁻¹ s⁻¹.

As for B6, the affinity, expressed as Kd, was 1.78 nM; the koff is 0.0038 s⁻¹; the on-rate constant (kon) is 2.13e+06 M⁻¹ s⁻¹.

For a further experiment, the target named is T3, cyno CD33 extracellular domain (Cynomolgus/Rhesus (cyno)).
T3 construct: soluble monomeric ECD; also called cyno CD33 ECD
Kind of experiment: SPR, Fab captured, 37C.
B1: binding was characterised by a dissociation constant (Kd) of 53.5 nM, the koff amounted to 0.0548 s⁻¹ and the kon worked out at 1.03e+06 M⁻¹ s⁻¹.

For the molecule B2, the binding result was “no binding (tested: 100 nM)”.

Consider B3, for which the binding result is “no binding (tested: 100 nM)”.

On to B4, for which the binding result is “no binding (tested: 100 nM)”.

As to B5, the binding result is “no binding (tested: 100 nM)”.

Consider B6, for which the binding result is listed as “no binding (tested: 100 nM)”.

The target in a further experiment is T2, human CD33 extracellular domain. Kind of experiment: SPR, Fab captured, 37C. The source holds these as a separate data set.
B1 registered a Kd of 2.67 nM, a koff of 0.00351 s⁻¹ and a kon of 1.32e+06 M⁻¹ s⁻¹.

The molecule B2 returned a Kd of 20.6 nM, a koff of 0.0118 s⁻¹ and a kon of 574000 M⁻¹ s⁻¹.

As for B3, the Kd is 18.6 nM, the koff worked out at 0.0162 s⁻¹ and the on-rate (kon) worked out at 874000 M⁻¹ s⁻¹.

Regarding B4, the Kd is 31.5 nM, the dissociation rate constant (koff) worked out at 0.0101 s⁻¹ and the kon came out at 319000 M⁻¹ s⁻¹.

In the case of B5, binding was characterised by a dissociation constant (Kd) of 42.2 nM, the koff is 0.0269 s⁻¹ and the kon was found to be 637000 M⁻¹ s⁻¹.

For the molecule B6, the Kd worked out at 1.78 nM, the koff turned out to be 0.0038 s⁻¹ and the kon was determined as 2.13e+06 M⁻¹ s⁻¹.

The target of a further experiment is T4, V domain of human CD33 (human, UniProt P20138 18-139, limits assumed).
T4 construct: recombinant, fully glycosylated V domain; also called Human CD33 V domain
Kind of experiment: SPR, Fab captured, 37C.
The molecule B1 had a Kd of 6.3 nM, a koff of 0.0213 s⁻¹ and a kon of 3.37e+06 M⁻¹ s⁻¹.

Consider B2, for which the Kd was determined as 95.8 nM, the koff was 0.124 s⁻¹ and the kon stood at 1.29e+06 M⁻¹ s⁻¹.

In turn, B3 yielded a dissociation constant (Kd) of 44.6 nM, a koff of 0.41 s⁻¹ and a kon of 9.19e+06 M⁻¹ s⁻¹.

B4 showed a Kd of 286 nM, a koff of 0.37 s⁻¹ and a kon of 1.29e+06 M⁻¹ s⁻¹.

In turn, B5 returned a Kd of 206 nM, a koff of 0.327 s⁻¹ and a kon of 1.59e+06 M⁻¹ s⁻¹.

B6 had a Kd of 3.95 nM, an off-rate (koff) of 0.0195 s⁻¹ and a kon of 4.93e+06 M⁻¹ s⁻¹.

Another experiment deals with T4, V domain of human CD33. Nature of the experiment: SPR, Fab captured, 37C. This is another data set of the same source.
B1 came in with a dissociation constant (Kd) of 6.3 nM, a koff of 0.0213 s⁻¹ and a kon of 3.37e+06 M⁻¹ s⁻¹.

B2: the Kd came to 95.8 nM, the koff turned out to be 0.124 s⁻¹ and the kon turned out to be 1.29e+06 M⁻¹ s⁻¹.

Molecule B3 had a Kd of 44.6 nM, a koff of 0.41 s⁻¹ and a kon of 9.19e+06 M⁻¹ s⁻¹.

B4 gave a Kd of 286 nM, a koff of 0.37 s⁻¹ and a kon of 1.29e+06 M⁻¹ s⁻¹.

B5 yielded a dissociation constant Kd of 206 nM, a koff of 0.327 s⁻¹ and an on-rate (kon) of 1.59e+06 M⁻¹ s⁻¹.

The molecule B6 yielded a Kd of 3.95 nM, a koff of 0.0195 s⁻¹ and a kon of 4.93e+06 M⁻¹ s⁻¹.

A further experiment addresses T5, deglycosylated V domain of human CD33 (human, UniProt P20138 18-139, limits assumed, N-glycans removed by PNGase).
T5 construct: V domain deglycosylated by PNGase before testing; also called deglycosylated V CD33
Nature of the experiment: SPR, Fab captured, 37C.
Take B1: binding was characterised by a dissociation constant (Kd) of 4.87 nM, the koff came to 0.0189 s⁻¹ and the kon turned out to be 3.59e+06 M⁻¹ s⁻¹.

On to B2, for which the Kd came to 85.6 nM, the koff was determined as 0.196 s⁻¹ and the kon stood at 2.29e+06 M⁻¹ s⁻¹.

B3 registered a Kd of 70.3 nM, a koff of 0.116 s⁻¹ and a kon of 1.65e+06 M⁻¹ s⁻¹.

The molecule B4 came in with a Kd of 143 nM, a koff of 0.116 s⁻¹ and a kon of 811000 M⁻¹ s⁻¹.

B5: binding was put at a Kd of 133 nM, the koff was determined as 0.225 s⁻¹ and the kon amounted to 1.7e+06 M⁻¹ s⁻¹.

The molecule B6 gave an equilibrium dissociation constant (Kd) of 3.11 nM, a koff of 0.018 s⁻¹ and an on-rate (kon) of 5.78e+06 M⁻¹ s⁻¹.

In a further experiment the target is T2, human CD33 extracellular domain. Nature of the experiment: SPR, Fab captured, 37C. The source holds these as a separate data set.
Molecule B1 gave a dissociation constant Kd of 2.67 nM, a koff of 0.00351 s⁻¹ and a kon of 1.32e+06 M⁻¹ s⁻¹.

On to B2, for which the dissociation constant Kd stood at 20.6 nM, the off-rate constant (koff) came to 0.0118 s⁻¹ and the kon is 574000 M⁻¹ s⁻¹.

On to B3, for which binding was put at a Kd of 18.6 nM, the off-rate constant (koff) came to 0.0162 s⁻¹ and the kon was determined as 874000 M⁻¹ s⁻¹.

Take B4: binding was put at a Kd of 31.5 nM, the koff came out at 0.0101 s⁻¹ and the kon stood at 319000 M⁻¹ s⁻¹.

The molecule B5 displayed a Kd of 42.2 nM, a koff of 0.0269 s⁻¹ and a kon of 637000 M⁻¹ s⁻¹.

For the molecule B6, the Kd amounted to 1.78 nM, the koff worked out at 0.0038 s⁻¹ and the kon stood at 2.13e+06 M⁻¹ s⁻¹.

For another experiment the target is unchanged. Kind of experiment: SPR, Fab captured, 37C. This is another data set of the same source.
Method: as §1
Affinity of 29 Fab fragments binding to human and cyno CD33 ECD were assayed by Biacore analysis.
B1 yielded a Kd of 2.67 nM and a koff of 0.00351 s⁻¹.

In turn, B2 returned an equilibrium dissociation constant (Kd) of 20.6 nM and a koff of 0.0118 s⁻¹.

With B3, the affinity, expressed as Kd, was 18.6 nM and the koff was 0.0162 s⁻¹.

In the case of B4, the equilibrium dissociation constant (Kd) was 31.5 nM and the koff amounted to 0.0101 s⁻¹.

Take B5: binding was put at a Kd of 42.2 nM and the off-rate constant (koff) came out at 0.0269 s⁻¹.

The molecule B6 registered a Kd of 1.78 nM and a koff of 0.0038 s⁻¹.

The target of another experiment is T6, human CD33 expressed on cells (human, UniProt P20138 18-364).
T6 construct: endogenous CD33 of human AML cell lines and blood monocytes; also called cell-expressed CD33 (Molm-13, Mv4-11, monocytes)
Kind of experiment: flow cytometry on Molm-13 cells, fluorophore-conjugated anti-human IgG secondary antibody, MFI as fold over background (FOB).
Method: Binding of the TriNKET was detected using a fluorophore conjugated anti-human IgG secondary antibody. Cells were analyzed by flow cytometry, binding MFI to cell expressed CD33 was normalized to secondary antibody controls to obtain fold over background values.
Take B7: the binding result is reported as “binds”.

For B8, the binding result is given as “binds”.
